Square brackets hold non-standard residues; d marks the D form. Ends that are not written are not given here. * marks the point of attachment. Benzoyl(3-OMe) = COc1cccc(C(=O)*)c1; Benzoyl(4-OMe) = COc1ccc(C(=O)*)cc1; d2Thi = N[C@H](Cc1cccs1)C(=O)O; dNal = D-naphthylalanine
B1: p-anisoyl-[D-Leu^12] dynorphin A(6-12)-NH2 (peptide)
peptide: {Benzoyl(4-OMe)}-RRIRPK[dL]-NH2
B2: S-163 (peptide)
peptide: {Benzoyl(4-OMe)}-RKLL[d2Thi]A[dL]-NH2
SMILES: COc1ccc(C(=O)N[C@@H](CCCNC(=N)N)C(=O)N[C@@H](CCCCN)C(=O)N[C@@H](CC(C)C)C(=O)N[C@@H](CC(C)C)C(=O)N[C@H](Cc2cccs2)C(=O)N[C@@H](C)C(=O)N[C@H](CC(C)C)C(N)=O)cc1
B3: SQW-7 (peptide)
peptide: {Benzoyl(3-OMe)}-ARIRPKL-NH2
SMILES: CC[C@H](C)[C@H](NC(=O)[C@H](CCCNC(=N)N)NC(=O)[C@H](C)NC(=O)c1cccc(OC)c1)C(=O)N[C@@H](CCCNC(=N)N)C(=O)N1CCC[C@H]1C(=O)N[C@@H](CCCCN)C(=O)N[C@@H](CC(C)C)C(N)=O
B4: S-162 (peptide)
peptide: {Benzoyl(4-OMe)}-RKLL[d2Thi]I[dA]-NH2
SMILES: CC[C@H](C)[C@H](NC(=O)[C@@H](Cc1cccs1)NC(=O)[C@H](CC(C)C)NC(=O)[C@H](CC(C)C)NC(=O)[C@H](CCCCN)NC(=O)[C@H](CCCNC(=N)N)NC(=O)c1ccc(OC)cc1)C(=O)N[C@H](C)C(N)=O
B5: mystixin-7 (S-21) (peptide)
peptide: {Benzoyl(4-OMe)}-RKLL[d2Thi]I[dL]-NH2
SMILES: CC[C@H](C)[C@H](NC(=O)[C@@H](Cc1cccs1)NC(=O)[C@H](CC(C)C)NC(=O)[C@H](CC(C)C)NC(=O)[C@H](CCCCN)NC(=O)[C@H](CCCNC(=N)N)NC(=O)c1ccc(OC)cc1)C(=O)N[C@H](CC(C)C)C(N)=O
B6: S-114 (peptide)
peptide: {Benzoyl(4-OMe)}-RKLL[dNal]I[dL]-NH2
B7: S-116 (peptide)
peptide: {Benzoyl(4-OMe)}-RKLL[dY]I[dL]-NH2
SMILES: CC[C@H](C)[C@H](NC(=O)[C@@H](Cc1ccc(O)cc1)NC(=O)[C@H](CC(C)C)NC(=O)[C@H](CC(C)C)NC(=O)[C@H](CCCCN)NC(=O)[C@H](CCCNC(=N)N)NC(=O)c1ccc(OC)cc1)C(=O)N[C@H](CC(C)C)C(N)=O
B8: S-117 (peptide)
peptide: {Benzoyl(4-OMe)}-RKLL[dW]I[dL]-NH2
SMILES: CC[C@H](C)[C@H](NC(=O)[C@@H](Cc1c[nH]c2ccccc12)NC(=O)[C@H](CC(C)C)NC(=O)[C@H](CC(C)C)NC(=O)[C@H](CCCCN)NC(=O)[C@H](CCCNC(=N)N)NC(=O)c1ccc(OC)cc1)C(=O)N[C@H](CC(C)C)C(N)=O
B9: S-118 (peptide)
peptide: {Benzoyl(4-OMe)}-AKLL[d2Thi]I[dL]-NH2
SMILES: CC[C@H](C)[C@H](NC(=O)[C@@H](Cc1cccs1)NC(=O)[C@H](CC(C)C)NC(=O)[C@H](CC(C)C)NC(=O)[C@H](CCCCN)NC(=O)[C@H](C)NC(=O)c1ccc(OC)cc1)C(=O)N[C@H](CC(C)C)C(N)=O
B10: SQW-8 (peptide)
peptide: {Benzoyl(3-OMe)}-RAIRPKL-NH2
SMILES: CC[C@H](C)[C@H](NC(=O)[C@H](C)NC(=O)[C@H](CCCNC(=N)N)NC(=O)c1cccc(OC)c1)C(=O)N[C@@H](CCCNC(=N)N)C(=O)N1CCC[C@H]1C(=O)N[C@@H](CCCCN)C(=O)N[C@@H](CC(C)C)C(N)=O
B11: SQW-9 (peptide)
peptide: {Benzoyl(3-OMe)}-RRARPKL-NH2
SMILES: COc1cccc(C(=O)N[C@@H](CCCNC(=N)N)C(=O)N[C@@H](CCCNC(=N)N)C(=O)N[C@@H](C)C(=O)N[C@@H](CCCNC(=N)N)C(=O)N2CCC[C@H]2C(=O)N[C@@H](CCCCN)C(=O)N[C@@H](CC(C)C)C(N)=O)c1
B12: Ac-Arg-Tyr-Tyr-Arg-Trp-Lys-NH2 (peptide)
chain: Ac-RYYRWK-NH2
B13: SQW-10 (peptide)
peptide: {Benzoyl(3-OMe)}-RRIAPKL-NH2
SMILES: CC[C@H](C)[C@H](NC(=O)[C@H](CCCNC(=N)N)NC(=O)[C@H](CCCNC(=N)N)NC(=O)c1cccc(OC)c1)C(=O)N[C@@H](C)C(=O)N1CCC[C@H]1C(=O)N[C@@H](CCCCN)C(=O)N[C@@H](CC(C)C)C(N)=O
B14: Ac-Arg-Tyr-Tyr-Arg-D-Trp-Lys-NH2 (peptide)
peptide: Ac-RYYR[dW]K-NH2
SMILES: CC(=O)N[C@@H](CCCNC(=N)N)C(=O)N[C@@H](Cc1ccc(O)cc1)C(=O)N[C@@H](Cc1ccc(O)cc1)C(=O)N[C@@H](CCCNC(=N)N)C(=O)N[C@H](Cc1c[nH]c2ccccc12)C(=O)N[C@@H](CCCCN)C(N)=O
B15: p-Anisoyl-Arg-Tyr-Tyr-Arg-D-Trp-Lys-NH2 (peptide)
peptide: {Benzoyl(4-OMe)}-RYYR[dW]K-NH2
SMILES: COc1ccc(C(=O)N[C@@H](CCCNC(=N)N)C(=O)N[C@@H](Cc2ccc(O)cc2)C(=O)N[C@@H](Cc2ccc(O)cc2)C(=O)N[C@@H](CCCNC(=N)N)C(=O)N[C@H](Cc2c[nH]c3ccccc23)C(=O)N[C@@H](CCCCN)C(N)=O)cc1
B16: human agouti-related protein fragment ARP-(83-132)-NH2 (peptide)
peptide: SSRRCVRLHESCLGQQVPCCDPCATCYCRFFNAFCYCRKLGTAMNPCSRT-NH2
modifications: disulfide (positions not given here); not fully specified (bridges); also: five disulfides among the 10 Cys, arrangement undetermined
B17: SQW-11 (peptide)
peptide: {Benzoyl(3-OMe)}-RRIRAKL-NH2
SMILES: CC[C@H](C)[C@H](NC(=O)[C@H](CCCNC(=N)N)NC(=O)[C@H](CCCNC(=N)N)NC(=O)c1cccc(OC)c1)C(=O)N[C@@H](CCCNC(=N)N)C(=O)N[C@@H](C)C(=O)N[C@@H](CCCCN)C(=O)N[C@@H](CC(C)C)C(N)=O
B18: SQW-12 (peptide)
peptide: {Benzoyl(3-OMe)}-RRIRPAL-NH2
SMILES: CC[C@H](C)[C@H](NC(=O)[C@H](CCCNC(=N)N)NC(=O)[C@H](CCCNC(=N)N)NC(=O)c1cccc(OC)c1)C(=O)N[C@@H](CCCNC(=N)N)C(=O)N1CCC[C@H]1C(=O)N[C@@H](C)C(=O)N[C@@H](CC(C)C)C(N)=O
B19: SQW-13 (peptide)
peptide: {Benzoyl(3-OMe)}-RRIRPKA-NH2
SMILES: CC[C@H](C)[C@H](NC(=O)[C@H](CCCNC(=N)N)NC(=O)[C@H](CCCNC(=N)N)NC(=O)c1cccc(OC)c1)C(=O)N[C@@H](CCCNC(=N)N)C(=O)N1CCC[C@H]1C(=O)N[C@@H](CCCCN)C(=O)N[C@@H](C)C(N)=O

What was measured:
[1] = molecular target: MC receptor endogenous to Xenopus laevis melanophores (Xenopus laevis); assay: cell-based or functional assay
[2] = molecular target: MC receptor endogenous to Xenopus laevis melanophores (Xenopus laevis); assay: Schild plot; antagonism of α-MSH pigment dispersion in Xenopus melanophores (functional)
[3] = molecular target: MC receptor endogenous to Xenopus laevis melanophores (Xenopus laevis); assay: Schild plot regression analysis, frog melanophores (functional)
[4] = molecular target: MC receptor endogenous to Xenopus laevis melanophores (Xenopus laevis); assay: Schild regression; suppression of α-MSH-induced pigment dispersion in Xenopus melanophores (functional)

Row | Binder | MCR IC50 nM: antagonism of α-MSH (600 pM) darkening of frog melanophores [1] [nM] | MCR Antagonism IC50 nM In Xenopus [1] [nM] | further results
1 | B1 | 29 |  | Ki [2]: 27 nM; pKi [2]: 7.57
2 | B2 |  | 234 | 
3 | B3 | 110 |  | 
4 | B4 |  | 43 | 
5 | B5 |  | 237 | 
6 | B6 |  | 166 | 
7 | B7 |  | 77 | 
8 | B8 |  | 22 | 
9 | B9 |  | 96 | 
10 | B10 | 75 |  | 
11 | B11 | 155 |  | 
12 | B12 |  |  | IC50 nM in Frog Melanophore Assay [1]: 1050 nM
13 | B13 | 187 |  | 
14 | B14 |  |  | IC50 nM in Frog Melanophore Assay [1]: 867 nM
15 | B15 |  |  | IC50 nM in Frog Melanophore Assay [1]: 175 nM
16 | B16 |  |  | Ki [3]: 0.21 nM; EC50 of α-MSH in frog melanophores in the presence of 30 nM ARP fragment [1]: 19 nM; Ki [4]: 0.7 nM
17 | B17 | 188 |  | 
18 | B18 | 1600 |  | 
19 | B19 | 62 |  | 
